Holding throughout (experiment): split reporter
Experiment [1] addresses T1, sLgBiT-GPR83 (N-terminally sLgBiT-fused mature human GPR83) (human, UniProt Q9NYM4-1 17-423).
In experiment [2] the target is T1, sLgBiT-GPR83 (N-terminally sLgBiT-fused …). The source holds these as a separate data set.
Experiment [3] shares this target. The source holds these as a separate data set.

“And” between values parts separate entries of the source, which are not always exact repeats. Equal values may be shown once.

T1 sequence (Q9NYM4 17-423): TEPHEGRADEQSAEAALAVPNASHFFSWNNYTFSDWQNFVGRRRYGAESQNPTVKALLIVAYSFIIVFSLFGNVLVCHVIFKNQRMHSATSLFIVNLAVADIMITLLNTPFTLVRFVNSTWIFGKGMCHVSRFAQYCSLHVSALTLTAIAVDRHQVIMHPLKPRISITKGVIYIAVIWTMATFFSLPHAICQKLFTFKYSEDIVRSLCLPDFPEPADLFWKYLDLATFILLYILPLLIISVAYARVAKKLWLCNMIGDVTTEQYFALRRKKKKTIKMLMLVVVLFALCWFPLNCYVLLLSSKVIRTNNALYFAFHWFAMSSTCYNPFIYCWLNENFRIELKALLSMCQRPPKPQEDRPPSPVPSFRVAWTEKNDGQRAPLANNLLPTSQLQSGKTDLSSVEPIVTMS

B1: SmBiT-FAM237A (ligand)
chain: HSQTDLLALSQADPQCWESSSVLLLEMWKPRVSNTVSGFWDFMIYLKSSENLKHGALFWDLAQLFWDIYVDCVLSRNHGL
In turn, B1 came in with a Kd in experiment [1] of approximately 70 nM. In experiment [2], this molecule came in with an association half-life of approximately 3 min and a dissociation half-life of approximately 7.5 min.

B2: mature human FAM237A (family with sequence similarity 237 member A) (ligand)
chain: B1 chain
modifications: amidated C-terminus; one intramolecular disulfide bond
Turning to B2, in experiment [3], the half-inhibitory concentration (IC50) is 13.5 nM and 12.9 nM and 16.9 nM.

As usually defined, the Kd is a measure of binding affinity in units of concentration. Low values mean higher affinity, high ones lower affinity. As usually defined, the IC50 is the concentration needed to halve the response being measured. Low values mean higher potency, high ones lower potency.

The values above are taken from doi:10.1101/2022.09.27.509696 (bioRxiv, 2022).
